{"source": "paper PMC5605996", "target": "GST fusion of the SET domain of Trithorax, GST-TrxSET (Drosophila)", "sequence (P20659 3583-3709)": "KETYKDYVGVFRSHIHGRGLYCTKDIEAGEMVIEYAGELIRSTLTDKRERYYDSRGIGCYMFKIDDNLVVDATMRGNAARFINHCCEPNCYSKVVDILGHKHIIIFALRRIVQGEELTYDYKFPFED", "experiment": "pull-down; 1 μg GST-E(z)SET or GST-TrxSET immobilised on GSH-agarose, mixed 2 h at 4 °C with pre-cleared reticulocyte lysate holding 35S-Asx or its deletion fragments; washes with 0.6 M NaCl, pH 7.9; SDS-PAGE and autoradiography, densitometry relative to GST"}
{"substance": "full-length Additional sex combs (Asx), 35S-methionine-labelled, in vitro translated, A(1-1669) (from UniProt Q9V727 1-1669) (natural protein)", "values": [{"measurement": "fold weaker than the Asx-E(z)(SET) interaction", "result": 5, "unit": "fold"}]}
